Assay results taken from the supplement of paper PMC9233669.
This sample holds only a part of the variants without activity.

How the values were obtained:
biotinyl-Phe-oxazolone = assay: self-aminoacylation, catalytic enhancement (BFO) (fold over background); higher = more active; k-Seq, kA / k0A0; sequences stand for … in GGGAAUGGAUCCACAUCUACGAAUUC…UUCACUGCAGACUUGACGAAGCUG
Method in brief: (§1)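 Each biotinyl-aminoacyl-oxazolone, at 2–1250 μM, was incubated with mutagenized RNA pools (0.43 μM) carrying a 21-nt variable region. The 50 μL reactions contained HEPES/NaCl/KCl/MgCl2/CaCl2 buffer with 5% acetonitrile at pH 6.9–7.0 and ran for 90 minutes at room temperature. After streptavidin capture, RNA was measured by qPCR in triplicate and by Illumina sequencing, and catalytic enhancement was calculated as median kA over the uncatalyzed rate from a pseudo-first-order fit of per-sequence fraction reacted.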

biotinyl-Ile-oxazolone = assay: self-aminoacylation, catalytic enhancement (BIO) (fold over background); higher = more active; k-Seq, kA / k0A0; sequences stand for … in GGGAAUGGAUCCACAUCUACGAAUUC…UUCACUGCAGACUUGACGAAGCUG
Method in brief: as §1

biotinyl-Met-oxazolone = assay: self-aminoacylation, catalytic enhancement (BMO) (fold over background); higher = more active; k-Seq, kA / k0A0; sequences stand for … in GGGAAUGGAUCCACAUCUACGAAUUC…UUCACUGCAGACUUGACGAAGCUG
Method in brief: as §1

biotinyl-Val-oxazolone = assay: self-aminoacylation, catalytic enhancement (BVO) (fold over background); higher = more active; k-Seq, kA / k0A0; sequences stand for … in GGGAAUGGAUCCACAUCUACGAAUUC…UUCACUGCAGACUUGACGAAGCUG
Method in brief: as §1

biotinyl-Leu-oxazolone = assay: self-aminoacylation, catalytic enhancement (BLO) (fold over background); higher = more active; k-Seq, kA / k0A0; sequences stand for … in GGGAAUGGAUCCACAUCUACGAAUUC…UUCACUGCAGACUUGACGAAGCUG
Method in brief: as §1

biotinyl-Trp-oxazolone = assay: self-aminoacylation, catalytic enhancement (BWO) (fold over background); higher = more active; k-Seq, kA / k0A0; sequences stand for … in GGGAAUGGAUCCACAUCUACGAAUUC…UUCACUGCAGACUUGACGAAGCUG
Method in brief: as §1

Row | Sequence | self-aminoacylation (biotinyl-Phe-oxazolone) | self-aminoacylation (biotinyl-Ile-oxazolone) | self-aminoacylation (biotinyl-Met-oxazolone) | self-aminoacylation (biotinyl-Val-oxazolone) | self-aminoacylation (biotinyl-Leu-oxazolone) | self-aminoacylation (biotinyl-Trp-oxazolone)
1 | CUAGUUCAAACAAUGGGUCUG [Fam1A.1 aminoacylation ribozyme variant] | 0.792 | 1.14 | 1.1 | 0.851 | 1.08 | 0.678
2 | CUAUUUCAAAAAAUCGGUCUG [Fam1A.1 aminoacylation ribozyme variant] | 2.31 | 1.13 | 1 | 0.85 | 1.18 | 1.73
3 | CUAUUUCAAACAACCGGUCUG [Fam1A.1 aminoacylation ribozyme variant] | 0.87 | 0.992 | 0.85 | 0.861 | 0.844 | 0.827
4 | CUAUUUCAAACAAUCGGACUG [Fam1A.1 aminoacylation ribozyme variant] | 1.93 | 0.976 | 0.82 | 0.733 | 0.803 | 1.12
5 | CUAUUUCAAACAAUGGGUCUG [Fam1A.1 aminoacylation ribozyme variant] | 0.641 | 0.924 | 0.836 | 0.81 | 0.863 | 0.802
6 | CUAUUUCAAACAAUUGGUCUG [Fam1A.1 aminoacylation ribozyme variant] | 0.87 | 1.01 | 0.994 | 0.873 | 0.929 | 0.736
7 | CUAUUUCAAACAGUCGGUCUG [Fam1A.1 aminoacylation ribozyme variant] | 0.588 | 0.827 | 0.859 | 0.8 | 0.843 | 0.682
8 | CUAUUUCGAACAAUCGGUCUG [Fam1A.1 aminoacylation ribozyme variant] | 0.664 | 0.814 | 0.799 | 0.793 | 0.697 | 0.67
9 | CUCCUUCAAACAAGCGGUCUG [Fam1A.1 aminoacylation ribozyme variant] | 0.811 | 0.98 | 0.734 | 0.83 | 0.774 | 1.25
10 | CUCCUUCAAACAAUCCGUCUG [Fam1A.1 aminoacylation ribozyme variant] | 1.24 | 1.03 | 0.657 | 0.949 | 0.659 | 1.25
11 | CUCCUUCAAACAUUCGGUCUG [Fam1A.1 aminoacylation ribozyme variant] | 3.15 | 1.24 | 1.31 | 1.32 | 1.05 | 1.66
12 | CUCCUUCAAACGAUCGGUCUG [Fam1A.1 aminoacylation ribozyme variant] | 1.86 | 0.833 | 0.833 | 0.925 | 1.21 | 2.2
13 | CUCCUUCAAACUAUCGGUCUG [Fam1A.1 aminoacylation ribozyme variant] | 1.92 | 1.14 | 1.17 | 1.15 | 0.895 | 1.5
14 | CUCCUUCAUACAAUCGGUCUG [Fam1A.1 aminoacylation ribozyme variant] | 0.839 | 0.652 | 0.609 | 0.664 | 0.771 | 0.794
15 | CUCUUUCAAACAAUCGGUCUG [Fam1A.1 aminoacylation ribozyme variant] | 14.2 | 0.972 | 1.13 | 0.908 | 1.21 | 9.95
16 | CUGCACCUAGGUCAUCGGGUG [Fam2.2 aminoacylation ribozyme variant] | 60 | 3.76 | 7.52 | 5.11 | 7.81 | 6.48
17 | CUGCUUCAAACAAUAGGUCUG [Fam1A.1 aminoacylation ribozyme variant] | 0.781 | 0.621 | 0.551 | 0.669 | 0.547 | 0.575
18 | CUGCUUCAAACAAUCGGUCCG [Fam1A.1 aminoacylation ribozyme variant] | 119 | 1.35 | 1.34 | 1.38 | 2.38 | 39.6
19 | CUGCUUCAAACAAUCUGUCUG [Fam1A.1 aminoacylation ribozyme variant] | 4.03 | 0.604 | 0.675 | 0.701 | 0.647 | 1.53
20 | CUGCUUCAAACAAUUGGUCUG [Fam1A.1 aminoacylation ribozyme variant] | 1.54 | 0.789 | 0.715 | 0.657 | 0.726 | 1.19
21 | CUGCUUCAAACGAUCGGUCUG [Fam1A.1 aminoacylation ribozyme variant] | 2.63 | 0.727 | 0.991 | 0.803 | 1.11 | 3.49
22 | CUGCUUCAGACAAUCGGUCUG [Fam1A.1 aminoacylation ribozyme variant] | 1.78 | 0.949 | 1.22 | 0.929 | 1.1 | 1.28
23 | CUGCUUGAAACAAUCGGUCUG [Fam1A.1 aminoacylation ribozyme variant] | 0.928 | 0.9 | 0.842 | 0.959 | 0.867 | 1.07
24 | CUUAACCUAGGUCAUCGGGUG [Fam2.2 aminoacylation ribozyme variant] | 15.8 | 2.91 | 4.25 | 2.69 | 4.78 | 4.21
25 | CUUAACCUGGUCAUCGAGUGA [Fam2.1 aminoacylation ribozyme variant] | 5.1 | 2.9 | 5.64 | 3.11 | 4.95 | 6.88
26 | CUUACCCCGGUCAUCGAGUGA [Fam2.1 aminoacylation ribozyme variant] | 19.8 | 3.44 | 6.51 | 3.92 | 6.2 | 6.76

Row | Sequence | self-aminoacylation (biotinyl-Phe-oxazolone) | self-aminoacylation (biotinyl-Ile-oxazolone) | self-aminoacylation (biotinyl-Met-oxazolone) | self-aminoacylation (biotinyl-Val-oxazolone) | self-aminoacylation (biotinyl-Leu-oxazolone) | self-aminoacylation (biotinyl-Trp-oxazolone)
27 | CUUACCCUGAUCAUCGAGUGA [Fam2.1 aminoacylation ribozyme variant] | 16.5 | 3.64 | 7.49 | 3.94 | 7.51 | 9.22
28 | CUUACCCUGGUCAUCAAGUGA [Fam2.1 aminoacylation ribozyme variant] | 4.44 | 1.67 | 2.58 | 1.93 | 2.58 | 3.4
29 | CUUACCCUGGUCAUCGACUGA [Fam2.1 aminoacylation ribozyme variant] | 0.459 | 1.1 | 0.673 | 0.739 | 0.833 | 1.31
30 | CUUACCCUGGUCAUCGAGUGG [Fam2.1 aminoacylation ribozyme variant] | 16.9 | 3.47 | 8.78 | 3.74 | 8.35 | 7.54
31 | CUUACCCUGGUCAUCUAGUGA [Fam2.1 aminoacylation ribozyme variant] | 29.7 | 3.75 | 7.9 | 3.89 | 8.12 | 10.4
32 | CUUCACCCAGGUCAUCGGGUG [Fam2.2 aminoacylation ribozyme variant] | 25.2 | 2.29 | 4.41 | 3.34 | 3.23 | 3.73
33 | CUUCACCUAGGUCACCGGGUG [Fam2.2 aminoacylation ribozyme variant] | 21.9 | 2.92 | 3.54 | 3.81 | 5.4 | 5.51
34 | CUUCACCUAGGUCAGCGGGUG [Fam2.2 aminoacylation ribozyme variant] | 9.81 | 3.62 | 3.27 | 3.88 | 4.96 | 4.01
35 | CUUCACCUAGGUCUUCGGGUG [Fam2.2 aminoacylation ribozyme variant] | 34.1 | 4.13 | 6.17 | 5.98 | 6.81 | 6.37
36 | CUUCUUCAAACAAUCGCUCUG [Fam1A.1 aminoacylation ribozyme variant] | 1.72 | 0.783 | 0.85 | 0.928 | 0.823 | 1.55
37 | CUUCUUCAAACAAUCGGCCUG [Fam1A.1 aminoacylation ribozyme variant] | 31.1 | 1.34 | 1.72 | 1.48 | 1.88 | 28.5
38 | CUUCUUCAAACAAUCGGUCUU [Fam1A.1 aminoacylation ribozyme variant] | 13.4 | 0.878 | 0.814 | 0.925 | 0.997 | 7.08
39 | CUUCUUCAAACACUCGGUCUG [Fam1A.1 aminoacylation ribozyme variant] | 0.651 | 0.938 | 1.04 | 0.977 | 0.791 | 0.901
40 | CUUCUUCAAACUAUCGGUCUG [Fam1A.1 aminoacylation ribozyme variant] | 1.22 | 1.26 | 0.943 | 1.01 | 1 | 0.962
41 | CUUUCCCUGGUCAUCGAGUGA [Fam2.1 aminoacylation ribozyme variant] | 7.03 | 4.62 | 8.78 | 5.04 | 8.95 | 10.6
42 | GAACACUUCAAGCAAUCGGUC [Fam1B.1 aminoacylation ribozyme variant] | 23.3 | 2.05 | 1.53 | 2.03 | 1.96 | 18.6
43 | GAACUUCAAACAAUCGGUCUG [Fam1A.1 aminoacylation ribozyme variant] | 65.3 | 1.85 | 1.7 | 1.66 | 2.4 | 35.8
44 | GACUUUGCUAAUAGUCGCAAG [Fam3.1 aminoacylation ribozyme variant] | 2.88 | 1.74 | 2.11 | 1.72 | 1.85 | 1.97
45 | GAGUUAGCUAAUAGUCGCAAG [Fam3.1 aminoacylation ribozyme variant] | 2.62 | 2.14 | 1.5 | 1.64 | 2.12 | 2.62
46 | GAGUUCGCUAAUAGUCGCAAG [Fam3.1 aminoacylation ribozyme variant] | 8.98 | 2.8 | 1.91 | 2.52 | 2.71 | 2.21
47 | GAGUUUGCCAAUAGUCGCAAG [Fam3.1 aminoacylation ribozyme variant] | 4.39 | 1.7 | 1.1 | 1.48 | 1.09 | 2.08
48 | GAGUUUGCUAAUAGUCGUAAG [Fam3.1 aminoacylation ribozyme variant] | 30.8 | 1.4 | 1.4 | 1.17 | 1.28 | 8.52
49 | GAGUUUGCUACUAGUCGCAAG [Fam3.1 aminoacylation ribozyme variant] | 1.59 | 1.31 | 1.04 | 1.47 | 1.66 | 1.99
50 | GAGUUUGCUAGUAGUCGCAAG [Fam3.1 aminoacylation ribozyme variant] | 1.92 | 1.21 | 1.28 | 1.04 | 0.89 | 0.876
51 | GAGUUUGCUCAUAGUCGCAAG [Fam3.1 aminoacylation ribozyme variant] | 7.43 | 1.72 | 1.73 | 1.59 | 2.12 | 2.62
